Measured values taken from publication PMC8519433.

How the values were obtained:
[1] = biological target: human CXCR1 on transfected L1.2 cells (human) (UniProt P25024)
[2] = biological target: CXCL8 (6-77), produced in-house (human); test: SEC-MALS; CXCL8 at 4.2 mg/ml (0.5 mM), Superdex 75 10/300 GL, 20 mM Na phosphate pH 6.5, 100 mM NaCl, room temperature; a single species

Chain of human CXCR1 on transfected L1.2 cells (human) (P25024 whole entry): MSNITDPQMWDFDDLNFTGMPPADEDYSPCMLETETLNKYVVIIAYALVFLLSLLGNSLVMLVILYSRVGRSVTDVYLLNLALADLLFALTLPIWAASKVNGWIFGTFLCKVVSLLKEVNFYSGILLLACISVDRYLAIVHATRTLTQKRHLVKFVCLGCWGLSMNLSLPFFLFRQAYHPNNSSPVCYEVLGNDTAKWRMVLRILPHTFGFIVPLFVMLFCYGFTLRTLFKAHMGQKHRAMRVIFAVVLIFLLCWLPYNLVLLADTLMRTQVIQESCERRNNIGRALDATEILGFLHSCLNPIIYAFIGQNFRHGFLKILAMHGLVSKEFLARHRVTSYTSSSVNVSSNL

chemotaxis of CXCR1-transfected L1.2 cells (modified Boyden chamber, 5 h), serial dilutions of CXCL8, bell-shaped response; percentage of cells migrated at the optimal concentration [1] [%]	stoichiometry N [2]	Substance
20	2	CXCL8 (6-77), produced in-house (ligand)
20		Recombinant CXCL8 (6-77), commercially available (ligand)
